One data set deals with T1, Nuclease K D582R/G42R (D582R,G42R).
T1 chain: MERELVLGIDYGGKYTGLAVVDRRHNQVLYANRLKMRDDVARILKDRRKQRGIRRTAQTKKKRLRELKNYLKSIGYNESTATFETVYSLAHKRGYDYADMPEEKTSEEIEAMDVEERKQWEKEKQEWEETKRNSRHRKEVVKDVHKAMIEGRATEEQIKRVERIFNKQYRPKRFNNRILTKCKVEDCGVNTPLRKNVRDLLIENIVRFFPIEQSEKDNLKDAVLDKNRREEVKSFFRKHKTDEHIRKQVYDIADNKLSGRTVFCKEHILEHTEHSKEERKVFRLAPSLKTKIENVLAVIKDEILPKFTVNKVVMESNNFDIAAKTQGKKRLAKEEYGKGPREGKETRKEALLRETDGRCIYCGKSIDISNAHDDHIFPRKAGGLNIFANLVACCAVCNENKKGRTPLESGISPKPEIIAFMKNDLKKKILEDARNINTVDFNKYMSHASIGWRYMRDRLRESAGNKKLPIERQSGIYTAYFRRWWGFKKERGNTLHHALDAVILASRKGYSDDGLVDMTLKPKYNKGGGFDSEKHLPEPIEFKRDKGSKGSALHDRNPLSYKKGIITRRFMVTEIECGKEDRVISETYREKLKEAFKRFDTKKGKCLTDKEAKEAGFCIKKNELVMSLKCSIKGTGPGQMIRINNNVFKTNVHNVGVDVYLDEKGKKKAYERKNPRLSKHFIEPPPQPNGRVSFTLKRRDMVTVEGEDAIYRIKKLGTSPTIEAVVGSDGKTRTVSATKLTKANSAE
Briefly: cell_activity; PAM NGG; HEK293T. The conditions noted are these: tags: N- and C-terminal NLS. As for the experimental part:
(§1) This Example describes indel assessment on mammalian targets using nuclease variants of Nuclease K comprising two or more substitutions identified as increasing indel activity in Example 8. 71 combination Nuclease K variants were tested.
(§2) Each Nuclease K variant and RNA guide (see Table 19) was cloned as described in Example 8. HEK293T cells were further transfected, followed by NGS analysis, as described in Example 8. For each target, indel ratios, referring to the percentage of NGS reads comprising indels, were calculated for the reference Nuclease K (SEQ ID NO: 65) and for each Nuclease K variant. The indel ratios shown in Table 20 were calculated as the average of two bioreplicates, each of which contained two technical replicates.

Data set [1] addresses T2, Nuclease K D582R/I53R/T734R (D582R,I53R,T734R).
T2 chain: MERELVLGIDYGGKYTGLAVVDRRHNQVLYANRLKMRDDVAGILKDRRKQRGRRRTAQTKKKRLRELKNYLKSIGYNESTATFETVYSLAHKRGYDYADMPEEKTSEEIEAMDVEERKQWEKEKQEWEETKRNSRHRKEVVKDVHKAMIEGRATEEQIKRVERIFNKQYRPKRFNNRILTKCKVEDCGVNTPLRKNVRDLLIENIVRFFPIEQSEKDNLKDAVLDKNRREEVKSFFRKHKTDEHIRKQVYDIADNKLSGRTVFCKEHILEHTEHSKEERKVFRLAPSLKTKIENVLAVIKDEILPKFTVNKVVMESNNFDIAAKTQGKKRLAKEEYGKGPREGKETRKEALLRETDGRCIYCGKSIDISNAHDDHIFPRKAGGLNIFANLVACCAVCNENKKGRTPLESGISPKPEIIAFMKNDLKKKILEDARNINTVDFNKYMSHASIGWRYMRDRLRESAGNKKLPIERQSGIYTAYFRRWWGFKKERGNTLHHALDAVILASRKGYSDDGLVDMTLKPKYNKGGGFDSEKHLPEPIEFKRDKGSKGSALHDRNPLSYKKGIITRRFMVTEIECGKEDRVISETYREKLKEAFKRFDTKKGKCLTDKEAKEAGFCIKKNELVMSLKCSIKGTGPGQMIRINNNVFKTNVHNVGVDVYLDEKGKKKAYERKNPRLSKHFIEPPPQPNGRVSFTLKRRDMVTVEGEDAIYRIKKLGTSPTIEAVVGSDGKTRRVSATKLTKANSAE
Put plainly: cell_activity; PAM NGG; HEK293T. The following applies: tags: N- and C-terminal NLS. Here is the method: as §1, §2

Data set [2] deals with T3, Nuclease K.
T3 chain: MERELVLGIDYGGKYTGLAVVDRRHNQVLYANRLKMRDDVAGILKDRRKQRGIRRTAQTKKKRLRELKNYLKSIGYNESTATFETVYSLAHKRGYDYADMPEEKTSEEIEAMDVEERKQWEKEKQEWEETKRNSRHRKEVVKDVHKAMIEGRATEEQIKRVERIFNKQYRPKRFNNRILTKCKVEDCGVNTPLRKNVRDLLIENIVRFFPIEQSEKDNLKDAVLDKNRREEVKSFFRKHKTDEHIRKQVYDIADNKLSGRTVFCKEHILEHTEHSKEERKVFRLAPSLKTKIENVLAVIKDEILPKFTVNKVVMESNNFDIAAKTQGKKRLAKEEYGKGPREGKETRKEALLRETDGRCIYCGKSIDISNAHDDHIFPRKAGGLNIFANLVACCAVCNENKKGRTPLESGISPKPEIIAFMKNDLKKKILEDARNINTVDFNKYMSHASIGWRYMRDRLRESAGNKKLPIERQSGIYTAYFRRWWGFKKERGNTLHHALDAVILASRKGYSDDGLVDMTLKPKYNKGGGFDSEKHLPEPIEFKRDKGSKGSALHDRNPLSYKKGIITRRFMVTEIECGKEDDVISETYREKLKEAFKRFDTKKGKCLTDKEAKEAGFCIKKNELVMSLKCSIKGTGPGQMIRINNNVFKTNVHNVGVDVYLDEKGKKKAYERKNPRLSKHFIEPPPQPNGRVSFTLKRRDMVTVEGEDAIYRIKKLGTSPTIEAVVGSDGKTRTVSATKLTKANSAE
Put plainly: cell_activity; PAM NGG (AGG); HEK293T; row labelled Reference SEQ ID NO: 1, text says Nuclease K. The conditions noted are these: tags: N-terminal SV40 NLS, C-terminal nucleoplasmin NLS.

Data set [3] has as its target T3, Nuclease K. Briefly: cell_activity; PAM NGG (GGG); HEK293T. The following applies: tags: N-terminal SV40 NLS, C-terminal nucleoplasmin NLS.

B1: Nuclease K AAVS1-T3 guide ; AAVS1-T3 target (ssRNA ; dsDNA)
RNA: UUGUGAGAAUGGUGCGUCCUGUUACAGUUAAGGCUCUGAAAAGAGCCUUAAUUGUAAAACGCCUAUACAGUGAAGGGAUAUACGCUUGGGUUUGUCCAGCCUGAGCCUCUAUGCCAGAAAUGGCGCCUUCAUCGUGGGUUAGGACAUUUAAAUUUAAAAACUAUUCAGCACUGUUUGCUCUUGUCAGCUUGGUGGCAGA
DNA 1: TTGTGAGAATGGTGCGTCCT
DNA 2: AGGACGCACCATTCTCACAA
As for B1, the activity with Nuclease K D582R/G42R is 0.221 indel ratio; in data set [1] it was 0.27 indel ratio; in the data set with Nuclease K [2], 0.037 indel ratio.

B2: Nuclease K EMX1-T7 guide ; EMX1-T7 target (ssRNA ; dsDNA)
RNA: CUUUAGCAAGGGACUAUUCAGUUACAGUUAAGGCUCUGAAAAGAGCCUUAAUUGUAAAACGCCUAUACAGUGAAGGGAUAUACGCUUGGGUUUGUCCAGCCUGAGCCUCUAUGCCAGAAAUGGCGCCUUCAUCGUGGGUUAGGACAUUUAAAUUUAAAAACUAUUCAGCACUGUUUGCUCUUGUCAGCUUGGUGGCAGA
DNA 1: CTTTAGCAAGGGACTATTCA
DNA 2: TGAATAGTCCCTTGCTAAAG
In the case of B2, the results for the activity (with Nuclease K D582R/G42R; in data set [1]; with Nuclease K [3]) were 0.231 indel ratio, 0.25 indel ratio and 0.011 indel ratio, respectively.

Source of the values: patent US20260275311, “CRISPR NUCLEASE POLYPEPTIDES AND GENE EDITING SYSTEMS COMPRISING SUCH” (ARBOR BIOTECHNOLOGIES, INC., published 2026).
